Experimental data as given in PMC3061877, “Comparison of the Frequency of Functional SH3 Domains with Different Limited Sets of Amino Acids Using mRNA Display” (PLoS ONE, 2011).

Target: wild-type src SH3 domain (T7·tag/His6 construct) (UniProt P00523 81-140)
Test: other fluorescence titration; fluorescence perturbation assay; aliquots of peptide added to SH3 domain (0.5 µM) in PBS pH 7.4, 10 min at 20°C; excitation 278 nm, emission 350 nm
Settings: both partners purified

- Kd: 2300 ± 470 nM
B1: VSL12 peptide (peptide)
peptide: VSLARRPLPPLP
notes: The methods of the fluorescence perturbation assay say only 'peptide VSL12'; also called free VSL12 peptide; peptide VSL12; source: synthetic peptide, bought: Invitrogen
